The values below come from patent US20250276076A1 (Seagen, published 2025).

Assay [1] deals with T1, human ALPP (on cells) (human, UniProt P05187 23-506).
T1 construct: the construct in the cells is not further defined; also called placental alkaline phosphatase; PLAP
Kind of assay: flow cytometry on ALPP-expressing HEK293 cells. The protocol: (§1) Cynomolgus ALPP, human ALPP, ALPPL2, ALPI and ALPL-expressing HEK293 cells were used to evaluate specificity and binding affinity. Briefly, one hundred thousand target-expressing HEK293 cells were transferred to 96-well plates. Cells were pelleted by centrifugation and resuspended in 100 μL of PBS+2% w/v BSA. After blocking, cells were resuspended in PBS+2% w/v BSA with unlabeled monoclonal anti-ALPP/ALPPL2 antibodies ranging in concentration from 8 pM to 666 nM and incubated on ice for 30 minutes. Cells were washed twice in PBS and resuspended in R-PE labeled secondary goat anti-human or anti-mouse antibodies (Jackson Immunoresearch, West Grove, PA) for 30 minutes on ice. […] Fluorescence was analyzed using an Attune NxT flow cytometer, and the percent of saturated fluorescent signal was used to determine percent bound and to subsequently calculate apparent KD.

Assay [2] deals with T1, human ALPP (on cells). Kind of assay: flow cytometry saturation binding on ALPP-expressing HEK293 cells (row 'nM Kd' of the table under the plot). The protocol:
as §1

The target of assay [3] is T2, human ALPPL2 (on cells) (human, UniProt P10696 20-503).
T2 construct: the construct in the cells is not further defined; also called HEK-ALPPL2 cells; ALPPL2-expressing LoVo cells
Description: flow cytometry saturation binding on ALPPL2-expressing HEK293 cells (row 'nM Kd' of the table under the plot). The protocol:
as §1

For assay [4], the target named is T2, human ALPPL2 (on cells). Kind of assay: flow cytometry on ALPPL2-expressing HEK293 cells. The protocol: as §1
Assay [5] deals with T3, soluble human ALPP-Fc fusion dimer (human, UniProt P05187 23-506).
T3 construct: Made in CHO cells; also called hALPP; hALPP Fc
Kind of assay: BLI (Octet), antibody on anti-human Fab-CH1 biosensors, hALPP Fc homodimer as analyte, pH 7.4, 37 °C, bivalent affinity. The source says: (§2) Soluble human ALPP-Fc and ALPPL2-Fc fusion dimer proteins were generated in CHO cells to be used as the analyte. […] After reference subtraction of the probe only curve, the data was globally fit with a 1:1 model with the Rmax sensor unlinked.

Assay [6] has as its target T4, soluble human ALPPL2-Fc fusion dimer (human, UniProt P10696 20-503).
T4 construct: Made in CHO cells; also called hALPPL2
Kind of assay: BLI (Octet Red 384), antibody on FAB2G biosensors, ALPPL2-Fc dimer as analyte, bivalent, pH 7.4, 37 C, 1:1 global fit.
Excerpt: as §2

Assay [7] addresses T3, soluble human ALPP-Fc fusion dimer. Kind of assay: BLI (Octet Red 384), antibody on FAB2G biosensors, ALPP-Fc dimer as analyte, bivalent, pH 7.4, 37 C, 1:1 global fit.
Excerpt: as §2

The target of assay [8] is T4, soluble human ALPPL2-Fc fusion dimer. Description: BLI, antibody on FAB2G biosensors, ALPPL2-Fc dimer as analyte, bivalent, pH 6.0, 37 C.
Excerpt: as §2
(§3) The only difference was the use of a different kinetic buffer (1% casein and 0.2% Tween20 in phosphate citrate pH 6.0).

The target of assay [9] is T3, soluble human ALPP-Fc fusion dimer. Description: BLI, antibody on FAB2G biosensors, ALPP-Fc dimer as analyte, bivalent, pH 6.0, 37 C.
Excerpt: as §2, §3

Assay [10] concerns the target T5, hFcγRIIIa V158 (biotinylated avi-tagged, fused with monomeric Fc) (human, UniProt P08637 17-208, biotin on avi tag).
T5 construct: also called hFcγRIIIa V158 hmFc AAG avi Biotin
Kind of assay: BLI (Octet HTX, 30 °C), biotinylated Fc receptor on streptavidin biosensors, ADC as analyte, 1:1 fit, pH 7.4. The source says:
(§4) Biotinylated avi-tagged human Fc receptors fused with monomeric Fc (designed and expressed at Seagen) were loaded onto high precision streptavidin biosensors (from ForteBio) to responses around 0.4 nm for all receptors except for hFcγR1 with responses around 1.2 nm. An initial baseline was completed in immobilization buffer (0.1% BSA, 0.02% Tween 20, 1×PBS pH 7.4) followed by a second baseline in kinetic buffer (1% casein, 0.2% Tween 20, 1×PBS pH 7.4 for hFcγRI, IIa, IIIa, and IIb interactions and 1% BSA+0.2% Tween 20, Phosphate Citrate pH 6.0 for hscFcRN interactions). […] Sensorgrams were generated on an Octet HTX system (ForteBio) at 30° C. and globally fitted with the 1:1 kinetic Langmuir isotherm model (Rmax unlinked) after a reference subtraction of the antigen-loaded, 0 nM analyte sensor. Negative controls with the highest concentration of antibodies and ADCs (20 μM) with no Fc receptor immobilized were also included to verify the absence of nonspecific binding of the analyte to the streptavidin biosensors themselves. Specific loading concentrations and times of each receptor to the streptavidin sensors and concentrations of titrated analytes are listed (Table 12 and Table 13).

The target in assay [11] is T6, hFcγRIIb (biotinylated avi-tagged, fused with monomeric Fc) (human, UniProt P31994 43-217, biotin on avi tag).
T6 construct: also called hFcγRIIb hmFc AAG avi Biotin
T6 sequence (looked up): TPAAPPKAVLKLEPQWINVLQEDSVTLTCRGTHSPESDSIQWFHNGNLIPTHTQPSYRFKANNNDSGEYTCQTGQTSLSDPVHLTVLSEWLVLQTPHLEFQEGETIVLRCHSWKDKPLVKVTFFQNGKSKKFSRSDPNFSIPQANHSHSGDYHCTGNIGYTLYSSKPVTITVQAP
The description is as above.
Excerpt: as §4

Assay [12] addresses T7, hscFcRN (biotinylated avi-tagged, fused with monomeric Fc) (human, UniProt P55899 24-297; P61769 21-119, limits assumed, biotin on avi tag).
T7 construct: also called hFcRN; hscFcRN hmFc IHH A avi Biotin
Kind of assay: BLI (Octet HTX, 30 °C), biotinylated hFcRN on streptavidin biosensors, ADC as analyte, 1:1 fit, pH 6.0.
Excerpt: as §4

The target in assay [13] is T8, hFcγRIIa R131 (biotinylated avi-tagged, fused with monomeric Fc) (human, UniProt P12318 34-217, biotin on avi tag).
T8 construct: also called hFcγRIIa R131 hmFc AAG avi Biotin
T8 sequence (looked up): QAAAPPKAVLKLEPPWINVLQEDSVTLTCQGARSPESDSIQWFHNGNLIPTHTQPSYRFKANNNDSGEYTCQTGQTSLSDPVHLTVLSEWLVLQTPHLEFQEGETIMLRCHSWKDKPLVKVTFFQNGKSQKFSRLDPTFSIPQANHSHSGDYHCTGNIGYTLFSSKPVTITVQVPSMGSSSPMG
Description: BLI (Octet HTX, 30 °C), biotinylated Fc receptor on streptavidin biosensors, ADC as analyte, 1:1 fit, pH 7.4.
Excerpt: as §4

Positions count from the first letter of the chain named.

T3 sequence (P05187 23-506 limits assumed): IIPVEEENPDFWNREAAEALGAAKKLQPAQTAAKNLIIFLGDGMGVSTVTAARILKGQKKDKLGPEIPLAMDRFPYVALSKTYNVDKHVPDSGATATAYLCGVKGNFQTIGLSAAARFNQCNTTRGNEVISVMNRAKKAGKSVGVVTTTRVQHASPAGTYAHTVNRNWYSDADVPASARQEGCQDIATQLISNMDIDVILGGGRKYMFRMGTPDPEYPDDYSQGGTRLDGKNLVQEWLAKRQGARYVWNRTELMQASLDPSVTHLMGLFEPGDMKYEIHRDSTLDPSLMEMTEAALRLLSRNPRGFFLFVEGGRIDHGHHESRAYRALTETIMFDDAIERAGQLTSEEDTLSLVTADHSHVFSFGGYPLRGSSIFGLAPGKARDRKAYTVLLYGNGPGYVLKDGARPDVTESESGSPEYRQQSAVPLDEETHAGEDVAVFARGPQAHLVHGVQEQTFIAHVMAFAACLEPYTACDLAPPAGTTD
T2 sequence (P10696 20-503 limits assumed): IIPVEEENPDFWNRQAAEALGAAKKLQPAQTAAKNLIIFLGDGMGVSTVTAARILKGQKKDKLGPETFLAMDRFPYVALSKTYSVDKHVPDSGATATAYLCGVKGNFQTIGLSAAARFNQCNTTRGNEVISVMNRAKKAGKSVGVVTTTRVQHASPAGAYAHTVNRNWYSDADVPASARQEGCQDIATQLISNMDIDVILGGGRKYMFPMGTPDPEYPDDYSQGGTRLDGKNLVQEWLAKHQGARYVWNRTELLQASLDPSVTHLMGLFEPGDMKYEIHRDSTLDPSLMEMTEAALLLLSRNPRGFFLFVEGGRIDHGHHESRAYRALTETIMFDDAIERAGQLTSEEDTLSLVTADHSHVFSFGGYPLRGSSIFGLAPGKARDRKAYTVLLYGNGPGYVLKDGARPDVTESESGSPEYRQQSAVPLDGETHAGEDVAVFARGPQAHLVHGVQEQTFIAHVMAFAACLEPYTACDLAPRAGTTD
T4 sequence (P10696 20-503 limits assumed): as above
T7 sequence (P55899 24-297 limits assumed, form in doubt, chain 1 of 2): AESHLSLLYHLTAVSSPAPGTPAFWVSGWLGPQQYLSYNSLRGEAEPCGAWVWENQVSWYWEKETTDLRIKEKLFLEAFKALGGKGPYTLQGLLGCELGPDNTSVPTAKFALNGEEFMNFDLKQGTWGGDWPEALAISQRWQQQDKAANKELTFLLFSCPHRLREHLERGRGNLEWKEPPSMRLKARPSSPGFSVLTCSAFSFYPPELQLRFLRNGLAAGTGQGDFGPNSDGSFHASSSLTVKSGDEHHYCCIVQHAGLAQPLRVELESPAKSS
T7 sequence (P61769 21-119 limits assumed, form in doubt, chain 2 of 2): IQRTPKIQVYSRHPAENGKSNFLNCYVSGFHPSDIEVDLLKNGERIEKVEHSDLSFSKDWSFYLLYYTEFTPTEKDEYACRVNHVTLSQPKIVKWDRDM
T1 sequence (P05187 23-506 limits assumed): as the sequence (P05187 23-506 limits assumed) above
T5 sequence (P08637 17-208 F176V): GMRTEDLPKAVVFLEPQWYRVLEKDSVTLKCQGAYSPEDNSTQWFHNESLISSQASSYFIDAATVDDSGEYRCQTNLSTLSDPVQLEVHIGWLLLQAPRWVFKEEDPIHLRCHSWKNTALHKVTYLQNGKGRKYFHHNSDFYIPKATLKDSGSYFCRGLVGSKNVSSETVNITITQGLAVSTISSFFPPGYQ

B1: murine antibody 12F3 (antibody, V domains shown)
VH: EVKLVESGGGLVQPGGSLSLSCAASGFTFTDYYMSWVRQPPGKALEWLALIRNKATGYTTEYSASVKGRFTISRDNSQSILYLQMNALRAEDSATYYCARASFYYDGKVLAYWGQGTLVTVSA
VL: DTQMTQSPSSLSASLGGKVTITCKASQDINKYIAWYQYKTGKGPRLLIHYTSTLQPGIPSRFSGSGSGRDYSFSISNLEPEDIATYYCLQYDNLYTFGGGTKLEIK
notes: mouse hybridoma antibody; also called SG82-12F3; m12F3
Turning to B1, the “EC50 (read off the curve)” value with human ALPP (on cells) [1] and with human ALPPL2 (on cells) [4] was around 0.3 µg/mL in each case. Besides, the Kd is 1.76 nM with human ALPP (on cells) [2] and 1.48 nM with human ALPPL2 (on cells) [3].

B2: h12F3 HFLD (antibody, V domains shown)
VH: EVQLVESGGGLVQPGRSLRLSCTASGFTFTDYYMSWVRQAPGKGLEWLALIRNKATGYTTEYSASVKGRFTISRDNSKSILYLQMNSLKTEDTAVYYCARASFYYDGKVLAYWGQGTLVTVSS
VL: DTQMTQSPSSLSASVGDRVTITCQASQDINKYIAWYQQKPGKAPKLLIYYTSSLQPGVPSRFSGSGSGTDYTFTISSLQPEDIATYYCLQYDNLYTFGQGTKLEIKR
notes: humanized 12F3 IgG variant
In turn, B2 displayed a Kd in assay [5] of 3.5 nM.

B3: h12F3 HGLF (antibody, V domains shown)
VH: B2 VH with S63T
VL: DTQMTQSPSSLSASVGDRVTITCQASQDINKYLAWYQYKPGKAPKLLIHYTSSLQSGVPSRFSGSGSGRDYTFTISSLQPEDIATYYCLQYDNLYTFGQGTKLEIK
notes: Whole humanized IgG; also called humanized 12F3 HGLF; naked h12F3 antibody
Turning to B3, the Kd in assay [6] came out at 0.044 nM; in [7], 0.13 nM; in assay [8] it was 4.8 nM; in assay [9], 6.8 nM.

B4: h12F3 HGLF-mp-dLAE-MMAE (antibody)
VH: not shown
VL: DTQMTQSPSSLSASVGDRVTITCQASQDINKYLAWYQYKPGKAPKLLIHYTSSLQSGVPSRFSGSGSGRDYTFTISSLQPEDIATYYCLQYDNLYTFGQGTKLEIKRTVAAPSVFIFPPSDEQLKSGTASVVCLLNNFYPREAKVQWKVDNALQSGNSQESVTEQDSKDSTYSLSSTLTLSKADYEKHKVYACEVTHQGLSSPVTKSFNRGEC
modifications: mp-dLAE-PABC-MMAE drug-linker on cysteines of the partially reduced antibody, 4 loads per antibody (chain and site not stated)
notes: antibody-drug conjugate of h12F3 HGLF; also called h12F3-mp-dLAE-MMAE; HGLF-dLAE-MMAE(4); copies: 2 + 2
As for B4, the values for the Kd in [10], in assay [11] and in assay [12] were 1100 nM, 36000 nM and 10.6 nM, respectively.

B5: h12F3 HGLF-mc-vc-MMAE (antibody)
VH: not shown
VL: B4 VL
modifications: mc-vc-PABC-MMAE drug-linker on cysteines of the partially reduced antibody, 4 loads per antibody (chain and site not stated)
notes: antibody-drug conjugate of h12F3 HGLF; also called h12F3 HGLF-me-vc-MMAE; h12F3 HGLF-vc-MMAE(4); copies: 2 + 2
For the molecule B5, the Kd in assay [13] was 7300 nM; in assay [11], 67000 nM; in assay [12], 13.2 nM.
